According to article PMC7904085:
pKd: −log10 of the molar value.

Target: Protein A/G
Assay: single-molecule TIRF microscopy, saturation curve

Mouse monoclonal anti-V5 tag antibody [SV5-Pk1]
pKd: 8.34
